Data on one molecule can be found in PMC8100066, “PIM-induced phosphorylation of Notch3 promotes breast cancer tumorigenicity in a CSL-independent fashion” (The Journal of Biological Chemistry, 2021).

The target in this assay is T1, mouse CSL (amino acid residues 53-474), conserved and structurally ordered core domain (mouse, UniProt P31266 53-474).
T1 construct: The SMT3 tag was cut off with ubiquitin-like protease and separated by ion exchange; also called RBPJ; mCSL
Kind of assay: ITC; CSL in the cell at 10 μM, RAM peptides in the syringe at 100 μM; 20 °C; 50 mM sodium phosphate, 150 mM sodium chloride; triplicate, 20 injections of 14 μl. As to conditions: both partners purified. (In general: Isothermal titration calorimetry measures the heat released or taken up as one component is titrated into another.)

In general, Kd refers to a measure of binding affinity in units of concentration. Higher therefore signals a looser complex.

T1 sequence (P31266 53-474): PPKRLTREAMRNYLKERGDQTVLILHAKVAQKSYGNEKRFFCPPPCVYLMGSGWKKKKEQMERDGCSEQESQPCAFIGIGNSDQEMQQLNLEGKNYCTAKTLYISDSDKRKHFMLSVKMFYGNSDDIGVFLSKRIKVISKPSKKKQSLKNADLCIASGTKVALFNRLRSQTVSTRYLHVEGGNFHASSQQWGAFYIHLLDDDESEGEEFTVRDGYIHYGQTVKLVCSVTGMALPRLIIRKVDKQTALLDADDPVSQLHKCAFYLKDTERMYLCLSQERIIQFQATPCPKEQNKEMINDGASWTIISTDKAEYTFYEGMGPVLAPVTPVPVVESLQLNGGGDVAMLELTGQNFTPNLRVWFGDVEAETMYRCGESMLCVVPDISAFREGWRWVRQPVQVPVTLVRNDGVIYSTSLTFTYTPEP

B1: human NOTCH1 RAM peptide (residues 1754-1781) (peptide)
peptide: VLLSRKRRRQHGQLWFPEGFKVSEASKK
notes: NOTCH1, human, RAM domain, residues 1754-1781; also called N1RAM; source: synthetic peptide (Peptide2.0, 95% purity)
B1: binding was characterised by a dissociation constant (Kd) of 0.022 µM.
